According to US20060177448:

Tests used:
gDHER2(DIV)-IgG = gDHER2(DIV)-IgG (UniProt P04626)

Substance | in vitro HER2 cleavage (sheddase) assay, stained gel (gDHER2(DIV)-IgG) | in vitro cleavage of HER-Fc proteins (other HER receptors)
purified catalytic domain of MT4-MMP (MMP-19) | All MT-MMPs except MMP-14 efficiently cleave gDHER2(DIV)-IgG substrate | –
purified catalytic domain of MT3-MMP (MMP-16) | All MT-MMPs except MMP-14 efficiently cleave gDHER2(DIV)-IgG substrate | –
purified catalytic domain of MT2-MMP (MMP-15) | All MT-MMPs except MMP-14 efficiently cleave gDHER2(DIV)-IgG substrate | –
MMP-15 (MT2-MMP), construct not specified at that place | – | MMP-15 does not clip other HER receptors
